# IntAct's records for PubMed 23873930
# B1: Transcriptional coactivator YAP1 (Homo sapiens), P46937-3 (parent)
# chain: MDPGQQPPPQPAPQGQGQPPSQPPQGQGPPSGPGQPAPAATQAAPQAPPAGHQIVHVRGDSETDLEALFNAVMNPKTANVPQTVPMRLRKLPDSFFKPPEPKSHSRQASTDAGTAGALTPQHVRAHSSPASLQLGAVSPGTLTPTGVVSGPAATPTAQHLRQSSFEIPDDVPLPAGWEMAKTSSGQRYFLNHIDQTTTWQDPRKAMLSQMNVTAPTSPPVQQNMMNSASAMNQRISQSAPVKQPPPLAPQSPQGGVMGGSNSNQQQQMRLQQLQMEKERLRLKQQELLRQVRPQELALRSQLPTLEQDGGTQNPVSSPGMSQELRTMTTNSSDPFLNSGTYHSRDESTDSGLSMSSYSVPRTPDDFLNSVDEMDTGDTINQSTLPSQQNRFPDYLEAIPGTNVDLGTLEGDGMNIEGEELMPSLQEALSSDILNDMESVLAATKLDKESFLTWL
# partner: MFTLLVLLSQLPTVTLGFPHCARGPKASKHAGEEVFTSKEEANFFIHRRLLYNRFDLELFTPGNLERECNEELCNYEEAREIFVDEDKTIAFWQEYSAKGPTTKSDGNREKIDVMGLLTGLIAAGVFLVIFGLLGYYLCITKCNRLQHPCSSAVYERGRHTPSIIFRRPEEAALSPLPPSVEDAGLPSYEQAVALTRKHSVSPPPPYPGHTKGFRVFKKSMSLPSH
# B2: Transmembrane gamma-carboxyglutamic acid protein 4 (Homo sapiens), Q9BZD6 (parent)
# chain: B1 partner
# B3: Transmembrane gamma-carboxyglutamic acid protein 4 (Homo sapiens), Q9BZD6 (parent)
# chain: B1 partner
# partner: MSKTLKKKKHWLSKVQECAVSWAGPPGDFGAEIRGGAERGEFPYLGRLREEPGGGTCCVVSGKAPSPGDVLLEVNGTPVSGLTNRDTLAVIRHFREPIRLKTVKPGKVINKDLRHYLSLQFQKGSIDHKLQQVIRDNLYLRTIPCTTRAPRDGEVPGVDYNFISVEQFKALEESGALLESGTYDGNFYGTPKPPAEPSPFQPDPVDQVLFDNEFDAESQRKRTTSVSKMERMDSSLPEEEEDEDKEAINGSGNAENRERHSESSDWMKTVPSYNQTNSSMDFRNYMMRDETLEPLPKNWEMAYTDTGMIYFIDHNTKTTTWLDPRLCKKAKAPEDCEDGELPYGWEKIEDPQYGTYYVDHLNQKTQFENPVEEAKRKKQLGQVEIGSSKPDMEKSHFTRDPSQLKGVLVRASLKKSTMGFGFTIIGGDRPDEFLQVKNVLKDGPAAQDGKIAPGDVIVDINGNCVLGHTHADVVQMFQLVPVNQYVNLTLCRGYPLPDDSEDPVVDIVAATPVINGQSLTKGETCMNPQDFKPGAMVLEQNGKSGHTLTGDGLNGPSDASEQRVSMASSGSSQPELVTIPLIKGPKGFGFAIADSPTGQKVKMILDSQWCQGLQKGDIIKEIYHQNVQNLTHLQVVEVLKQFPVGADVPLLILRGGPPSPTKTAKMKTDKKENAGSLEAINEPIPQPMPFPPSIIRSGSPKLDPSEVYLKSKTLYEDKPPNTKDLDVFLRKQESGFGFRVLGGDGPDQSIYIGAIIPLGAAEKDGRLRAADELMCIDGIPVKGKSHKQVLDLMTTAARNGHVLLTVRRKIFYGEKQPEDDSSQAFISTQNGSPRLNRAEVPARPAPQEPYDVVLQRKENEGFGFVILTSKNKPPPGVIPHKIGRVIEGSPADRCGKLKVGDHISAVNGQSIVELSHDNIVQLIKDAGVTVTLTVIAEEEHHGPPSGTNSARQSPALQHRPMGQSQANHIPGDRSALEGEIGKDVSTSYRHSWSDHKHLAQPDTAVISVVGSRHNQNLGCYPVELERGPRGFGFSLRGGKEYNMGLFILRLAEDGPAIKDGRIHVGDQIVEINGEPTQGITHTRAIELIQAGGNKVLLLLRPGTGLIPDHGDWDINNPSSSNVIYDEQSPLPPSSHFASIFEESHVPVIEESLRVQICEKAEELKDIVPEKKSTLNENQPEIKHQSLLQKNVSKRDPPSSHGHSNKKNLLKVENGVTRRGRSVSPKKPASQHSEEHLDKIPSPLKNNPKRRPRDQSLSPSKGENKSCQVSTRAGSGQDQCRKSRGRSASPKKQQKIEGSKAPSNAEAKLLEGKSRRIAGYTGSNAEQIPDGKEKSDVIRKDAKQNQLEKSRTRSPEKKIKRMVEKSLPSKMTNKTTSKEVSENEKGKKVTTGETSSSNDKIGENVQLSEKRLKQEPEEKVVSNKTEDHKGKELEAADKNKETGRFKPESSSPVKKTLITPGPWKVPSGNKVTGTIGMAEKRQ
# Variants of: B1
# Details: with tmg4_human PRRG4, Q9BZD6
row,Variant,effect of a mutation on the interaction
1,S127A,with no effect
2,W199A;P202A,disrupting interaction strength

# Variants of: B2
# Details: with Magi1, Q6RHR9-1
# Sequence of Magi1, Q6RHR9-1 (Q6RHR9 whole entry): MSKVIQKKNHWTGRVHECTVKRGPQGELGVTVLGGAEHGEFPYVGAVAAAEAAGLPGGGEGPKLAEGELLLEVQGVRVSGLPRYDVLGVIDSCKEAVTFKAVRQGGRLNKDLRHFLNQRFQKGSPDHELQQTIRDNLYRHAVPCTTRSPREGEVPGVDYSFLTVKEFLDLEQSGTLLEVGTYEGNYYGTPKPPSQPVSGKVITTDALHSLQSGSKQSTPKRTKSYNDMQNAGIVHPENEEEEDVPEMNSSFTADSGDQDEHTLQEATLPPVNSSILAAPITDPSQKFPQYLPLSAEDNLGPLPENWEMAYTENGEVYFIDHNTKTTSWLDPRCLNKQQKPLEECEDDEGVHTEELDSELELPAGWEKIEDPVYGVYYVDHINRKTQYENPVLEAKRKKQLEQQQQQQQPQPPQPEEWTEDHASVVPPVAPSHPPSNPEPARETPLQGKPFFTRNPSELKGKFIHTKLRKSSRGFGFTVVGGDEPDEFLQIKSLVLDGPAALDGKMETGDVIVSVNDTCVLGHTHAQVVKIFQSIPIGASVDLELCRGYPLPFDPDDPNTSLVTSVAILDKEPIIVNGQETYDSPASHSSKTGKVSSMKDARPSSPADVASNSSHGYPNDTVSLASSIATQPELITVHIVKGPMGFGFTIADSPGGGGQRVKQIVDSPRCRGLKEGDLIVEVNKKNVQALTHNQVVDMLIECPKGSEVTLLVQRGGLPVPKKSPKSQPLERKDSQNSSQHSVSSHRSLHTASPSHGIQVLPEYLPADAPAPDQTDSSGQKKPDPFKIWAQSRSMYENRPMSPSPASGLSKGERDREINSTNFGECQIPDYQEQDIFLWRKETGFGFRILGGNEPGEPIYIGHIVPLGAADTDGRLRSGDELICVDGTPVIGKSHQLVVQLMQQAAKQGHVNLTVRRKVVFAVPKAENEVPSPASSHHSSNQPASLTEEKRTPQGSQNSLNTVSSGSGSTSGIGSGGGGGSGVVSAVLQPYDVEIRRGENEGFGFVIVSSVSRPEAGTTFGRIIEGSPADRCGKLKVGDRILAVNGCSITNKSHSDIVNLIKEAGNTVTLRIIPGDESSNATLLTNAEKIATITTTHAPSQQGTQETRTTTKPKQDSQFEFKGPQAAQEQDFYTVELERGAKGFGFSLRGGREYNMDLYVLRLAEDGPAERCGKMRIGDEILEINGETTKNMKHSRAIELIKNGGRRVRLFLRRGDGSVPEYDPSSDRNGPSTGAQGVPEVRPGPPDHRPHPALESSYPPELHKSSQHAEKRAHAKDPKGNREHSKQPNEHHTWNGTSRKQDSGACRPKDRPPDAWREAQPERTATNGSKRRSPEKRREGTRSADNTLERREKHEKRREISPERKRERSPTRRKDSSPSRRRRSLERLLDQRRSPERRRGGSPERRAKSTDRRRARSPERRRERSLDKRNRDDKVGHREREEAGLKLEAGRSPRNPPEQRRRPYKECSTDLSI
row,Variant,effect of a mutation on the interaction
1,MFTLLVLLSQLPTVTLGFPHCARGPKASKHAGEEVFTSKEEANFFIHRRLLYNRFDLELFTPGNLERECNEELCNYEEAREIFVDEDKTIAFWQEYSAKGPTTKSDGNREKIDVMGLLTGLIAAGVFLVIFGLLGYYLCITKCNRLQHPCSSAVYERGRHTPSIIFRRPEEAALSPLPPSVEDAGLPSAEQAVALTRKHSVSPPPPYPGHTKGFRVFKKSMSLPSH [Y189A],disrupting interaction strength
2,MFTLLVLLSQLPTVTLGFPHCARGPKASKHAGEEVFTSKEEANFFIHRRLLYNRFDLELFTPGNLERECNEELCNYEEAREIFVDEDKTIAFWQEYSAKGPTTKSDGNREKIDVMGLLTGLIAAGVFLVIFGLLGYYLCITKCNRLQHPCSSAVYERGRHTPSIIFRRPEEAALSPLPPSVEDAGLPSYEQAVALTRKHSVSPPPPAPGHTKGFRVFKKSMSLPSH [Y207A],decreasing interaction strength

# Variants of: B2
# Details: with wwtr1_human WWTR1, Q9GZV5
# Sequence of wwtr1_human WWTR1, Q9GZV5 (Q9GZV5 whole entry): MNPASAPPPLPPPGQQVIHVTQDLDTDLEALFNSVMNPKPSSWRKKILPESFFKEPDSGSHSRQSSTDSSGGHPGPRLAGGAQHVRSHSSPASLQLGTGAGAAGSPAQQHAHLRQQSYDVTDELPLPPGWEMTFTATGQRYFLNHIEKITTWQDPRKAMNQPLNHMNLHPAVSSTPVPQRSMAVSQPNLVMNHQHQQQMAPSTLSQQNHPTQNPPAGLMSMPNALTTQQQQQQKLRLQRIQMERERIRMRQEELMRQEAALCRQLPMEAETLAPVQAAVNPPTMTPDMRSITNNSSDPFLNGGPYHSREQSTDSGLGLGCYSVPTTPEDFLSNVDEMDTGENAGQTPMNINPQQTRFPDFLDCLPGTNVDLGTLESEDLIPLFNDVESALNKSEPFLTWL
row,Variant,effect of a mutation on the interaction
1,MFTLLVLLSQLPTVTLGFPHCARGPKASKHAGEEVFTSKEEANFFIHRRLLYNRFDLELFTPGNLERECNEELCNYEEAREIFVDEDKTIAFWQEYSAKGPTTKSDGNREKIDVMGLLTGLIAAGVFLVIFGLLGYYLCITKCNRLQHPCSSAVYERGRHTPSIIFRRPEEAALSPLPPSVEDAGLPSAEQAVALTRKHSVSPPPPYPGHTKGFRVFKKSMSLPSH [Y189A],disrupting interaction strength
2,MFTLLVLLSQLPTVTLGFPHCARGPKASKHAGEEVFTSKEEANFFIHRRLLYNRFDLELFTPGNLERECNEELCNYEEAREIFVDEDKTIAFWQEYSAKGPTTKSDGNREKIDVMGLLTGLIAAGVFLVIFGLLGYYLCITKCNRLQHPCSSAVYERGRHTPSIIFRRPEEAALSPLPPSVEDAGLPSYEQAVALTRKHSVSPPPPAPGHTKGFRVFKKSMSLPSH [Y207A],with no effect

# Variants of: B2
# Details: with YAP1, P46937-3
row,Variant,effect of a mutation on the interaction
1,MFTLLVLLSQLPTVTLGFPHCARGPKASKHAGEEVFTSKEEANFFIHRRLLYNRFDLELFTPGNLERECNEELCNYEEAREIFVDEDKTIAFWQEYSAKGPTTKSDGNREKIDVMGLLTGLIAAGVFLVIFGLLGYYLCITKCNRLQHPCSSAVYERGRHTPSIIFRRPEEAALSPLPPSVEDAGLPSAEQAVALTRKHSVSPPPPYPGHTKGFRVFKKSMSLPSH [Y189A],disrupting interaction strength
2,MFTLLVLLSQLPTVTLGFPHCARGPKASKHAGEEVFTSKEEANFFIHRRLLYNRFDLELFTPGNLERECNEELCNYEEAREIFVDEDKTIAFWQEYSAKGPTTKSDGNREKIDVMGLLTGLIAAGVFLVIFGLLGYYLCITKCNRLQHPCSSAVYERGRHTPSIIFRRPEEAALSPLPPSVEDAGLPSYEQAVALTRKHSVSPPPPAPGHTKGFRVFKKSMSLPSH [Y207A],with no effect

# Variants of: B2
# Details: with ned4l_human NEDD4L
row,Variant,effect of a mutation on the interaction
1,MFTLLVLLSQLPTVTLGFPHCARGPKASKHAGEEVFTSKEEANFFIHRRLLYNRFDLELFTPGNLERECNEELCNYEEAREIFVDEDKTIAFWQEYSAKGPTTKSDGNREKIDVMGLLTGLIAAGVFLVIFGLLGYYLCITKCNRLQHPCSSAVYERGRHTPSIIFRRPEEAALSPLPPSVEDAGLPSAEQAVALTRKHSVSPPPPYPGHTKGFRVFKKSMSLPSH [Y189A],disrupting interaction strength
2,MFTLLVLLSQLPTVTLGFPHCARGPKASKHAGEEVFTSKEEANFFIHRRLLYNRFDLELFTPGNLERECNEELCNYEEAREIFVDEDKTIAFWQEYSAKGPTTKSDGNREKIDVMGLLTGLIAAGVFLVIFGLLGYYLCITKCNRLQHPCSSAVYERGRHTPSIIFRRPEEAALSPLPPSVEDAGLPSYEQAVALTRKHSVSPPPPAPGHTKGFRVFKKSMSLPSH [Y207A],with no effect

# Variants of: B2
# Details: with nedd4_human NEDD4, P46934
# Sequence of nedd4_human NEDD4, P46934 (P46934 whole entry): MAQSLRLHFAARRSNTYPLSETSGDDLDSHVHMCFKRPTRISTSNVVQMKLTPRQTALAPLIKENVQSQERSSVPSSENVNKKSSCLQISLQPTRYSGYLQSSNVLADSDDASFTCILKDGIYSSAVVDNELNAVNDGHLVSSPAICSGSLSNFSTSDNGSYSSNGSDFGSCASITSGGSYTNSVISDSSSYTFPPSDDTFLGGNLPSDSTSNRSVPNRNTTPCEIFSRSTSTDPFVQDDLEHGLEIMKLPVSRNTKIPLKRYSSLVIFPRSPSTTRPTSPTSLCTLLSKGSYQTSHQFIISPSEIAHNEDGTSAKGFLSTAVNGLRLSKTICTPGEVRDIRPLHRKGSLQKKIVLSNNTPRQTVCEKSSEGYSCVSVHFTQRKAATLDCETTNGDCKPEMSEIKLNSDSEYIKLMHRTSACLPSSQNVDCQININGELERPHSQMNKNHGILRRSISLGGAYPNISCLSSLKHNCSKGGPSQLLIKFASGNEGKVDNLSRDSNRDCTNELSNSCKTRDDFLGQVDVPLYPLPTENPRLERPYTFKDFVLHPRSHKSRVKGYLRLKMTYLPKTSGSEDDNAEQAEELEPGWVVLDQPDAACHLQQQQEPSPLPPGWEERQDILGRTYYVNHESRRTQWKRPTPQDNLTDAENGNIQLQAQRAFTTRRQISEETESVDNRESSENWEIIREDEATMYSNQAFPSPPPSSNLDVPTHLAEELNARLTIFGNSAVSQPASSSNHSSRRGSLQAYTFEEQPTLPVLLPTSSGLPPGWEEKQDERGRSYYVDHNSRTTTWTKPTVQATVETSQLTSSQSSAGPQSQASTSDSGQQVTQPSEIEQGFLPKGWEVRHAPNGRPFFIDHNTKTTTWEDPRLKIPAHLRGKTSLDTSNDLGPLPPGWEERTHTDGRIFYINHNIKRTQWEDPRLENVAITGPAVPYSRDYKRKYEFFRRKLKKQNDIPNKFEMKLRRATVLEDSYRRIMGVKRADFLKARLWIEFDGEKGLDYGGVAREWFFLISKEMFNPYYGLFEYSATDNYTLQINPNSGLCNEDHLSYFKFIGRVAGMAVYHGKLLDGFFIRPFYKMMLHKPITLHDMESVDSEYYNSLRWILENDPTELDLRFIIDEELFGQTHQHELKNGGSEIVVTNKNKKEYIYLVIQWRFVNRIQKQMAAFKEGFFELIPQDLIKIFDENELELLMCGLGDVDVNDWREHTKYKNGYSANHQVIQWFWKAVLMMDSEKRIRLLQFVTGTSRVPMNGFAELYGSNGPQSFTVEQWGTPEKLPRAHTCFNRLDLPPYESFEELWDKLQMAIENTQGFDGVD
row,Variant,effect of a mutation on the interaction
1,MFTLLVLLSQLPTVTLGFPHCARGPKASKHAGEEVFTSKEEANFFIHRRLLYNRFDLELFTPGNLERECNEELCNYEEAREIFVDEDKTIAFWQEYSAKGPTTKSDGNREKIDVMGLLTGLIAAGVFLVIFGLLGYYLCITKCNRLQHPCSSAVYERGRHTPSIIFRRPEEAALSPLPPSVEDAGLPSAEQAVALTRKHSVSPPPPYPGHTKGFRVFKKSMSLPSH [Y189A],disrupting interaction strength
2,MFTLLVLLSQLPTVTLGFPHCARGPKASKHAGEEVFTSKEEANFFIHRRLLYNRFDLELFTPGNLERECNEELCNYEEAREIFVDEDKTIAFWQEYSAKGPTTKSDGNREKIDVMGLLTGLIAAGVFLVIFGLLGYYLCITKCNRLQHPCSSAVYERGRHTPSIIFRRPEEAALSPLPPSVEDAGLPSYEQAVALTRKHSVSPPPPAPGHTKGFRVFKKSMSLPSH [Y207A],with no effect

# Variants of: B3
# Details: with magi3_human MAGI3, Q5TCQ9
row,Variant,effect of a mutation on the interaction
1,MFTLLVLLSQLPTVTLGFPHCARGPKASKHAGEEVFTSKEEANFFIHRRLLYNRFDLELFTPGNLERECNEELCNYEEAREIFVDEDKTIAFWQEYSAKGPTTKSDGNREKIDVMGLLTGLIAAGVFLVIFGLLGYYLCITKCNRLQHPCSSAVYERGRHTPSIIFRRPEEAALSPLPPSVEDAGLPSYEQAVALTRKHSVSPPPPAPGHTKGFRVFKKSMSLPSH [Y207A],with no effect
2,MFTLLVLLSQLPTVTLGFPHCARGPKASKHAGEEVFTSKEEANFFIHRRLLYNRFDLELFTPGNLERECNEELCNYEEAREIFVDEDKTIAFWQEYSAKGPTTKSDGNREKIDVMGLLTGLIAAGVFLVIFGLLGYYLCITKCNRLQHPCSSAVYERGRHTPSIIFRRPEEAALSPLPPSVEDAGLPSAEQAVALTRKHSVSPPPPYPGHTKGFRVFKKSMSLPSH [Y189A],disrupting interaction strength
